Article PMC7021487

Molecular target: GFP Pavarotti co-expressed with exogenous Trc (greater pool phosphorylated at S745) (D. melanogaster)
Test: co-IP; GFP Pavarotti (WT, S745A, or WT with co-expressed Trc) over-expressed in HEK 293 FT cells; lysate in coIP buffer (50 mM Tris pH 7.5, 150 mM NaCl, 1.5% Triton X-100, 1 mM EDTA, 1 mM NaVO3); precipitated with GFP-Trap-M (single chain anti-GFP) beads, washed 3x; blot for endogenous 14-3-3

increase of the co-precipitated interaction against GFP Pavarotti without Trc: 60%
Substance: endogenous 14-3-3 ξ (HEK 293 FT cells) (from UniProt P63104 1-245) (natural protein)
